{"source": "paper PMC9894594", "about": "“Progressive Acceleration of Insulin Exposure Over 7 Days of Infusion Set Wear” (Diabetes Technology & Therapeutics, 2023)", "experiment": "Insulin lispro pharmacokinetics after pump bolus during euglycemic clamp over 7 days of infusion set wear", "assay_type": "in vivo, human (participants with type 1 diabetes mellitus)", "conditions": "for decline of median total insulin exposure (AUC0–300) from days 0 to 7: n.s.; for AUC0–300 (area under the insulin concentration curve, 0 to 300 min) / Cmax (maximum insulin concentration) / MRT (mean residence time) / t50% (early) (time to reach 50% of Cmax before peak) / t50% (late) (time to reach 50% of Cmax after peak) / tmax (time to maximum insulin concentration): 0.15 U/kg SC bolus by pump, plasma ELISA, median (25th–75th)", "from_the_text": "We performed a prospectively enrolled randomized sequence two-way crossover study of the investigational CBX (Capillary Biomedical, Inc., Irvine, CA) and a commercial angled Teflon (MiniMed™ Silhouette™; Medtronic Diabetes Care, Northridge, CA; indicated for 3-day use) IIS for two weeklong home use periods with four in-patient euglycemic clamp sessions during each of the 7-day periods. Between the two periods, there was a wash out of 14 days (Supplementary Fig. S1).\nEuglycemic clamp experiments were performed at AMCR Institute (in Escondido, CA.) on days 0, 3, 5, and 7 in each treatment period (eight clamps per participant). Participants were admitted to AMCR the evening before the clamp study and glucose was stabilized overnight with intravenous (IV) insulin or glucose as needed. Personal pumps were set to 0.1 U/h overnight and throughout the clamp experiment. Once glucose was stable (95 ± 15 mg/dL) in the morning, IV insulin was stopped 20 min before administering a bolus of 0.15 U/kg of insulin lispro (Eli Lilly, Indianapolis, IN) by pump. Glucose was clamped at 95 ± 15 mg/dL for 300 min or terminated early if runaway hyperglycemia occurred.\nPer participant and clamp, 30 plasma samples were collected in regular intervals and stored at −70°C. Samples were analyzed elsewhere (Northern Lights Mercodia Lispro ELISA, Mercodia AB, Uppsala, Sweden; lowest limit of quantification (LLOQ) = 1.0 mU/L, 94% accuracy[7]). Owing to the small sample size and the intrinsically greater variability in pharmacodynamic measures, the PK results are the only results detailed in this report.\nPK parameters (area under the insulin concentration curve [AUC] over the first 60 or 300 min, respectively; time to maximum insulin concentration [tmax]; maximum insulin concentration [Cmax]; time to half-maximum insulin concentration, early and late [t50%], and mean residence time [MRT]) were tested for treatment effects. […] Estimated means were then back transformed and the ratio between treatments/days (equality means a ratio of 1) tested for significance using mixed model for repeated measures (two-sided, α = 0.05). For simplicity reasons, all data are presented as median (25th–75th percentiles) or mean ± standard deviation.", "key": {"[1]": {"conditions": "day 0 of IIS wear, CBX IIS, n = 6"}, "[2]": {"conditions": "day 0 of IIS wear, Control IIS, n = 6"}, "[3]": {"conditions": "day 3 of IIS wear, CBX IIS, n = 6"}, "[4]": {"conditions": "day 3 of IIS wear, Control IIS, n = 6"}, "[5]": {"conditions": "day 5 of IIS wear, CBX IIS, n = 6"}, "[6]": {"conditions": "day 5 of IIS wear, Control IIS, n = 6"}, "[7]": {"conditions": "day 7 of IIS wear, CBX IIS, n = 5"}, "[8]": {"conditions": "day 7 of IIS wear, Control IIS, n = 5"}}}
{"substance": "insulin lispro", "values": [{"measurement": "decline of median total insulin exposure (AUC0–300) from days 0 to 7", "setting": "CBX group", "value": 22, "unit": "%"}, {"measurement": "acceleration of median tmax by day 7 vs day 0", "setting": "Control group", "value": 63, "unit": "%"}, {"measurement": "increase of median early exposure (AUC0–60) by day 7 vs day 0", "setting": "Control group", "value": 34, "unit": "%"}, {"measurement": "decline of median total insulin exposure (AUC0–300) from days 0 to 7", "setting": "Control group", "value": 26, "unit": "%"}, {"measurement": "AUC0–300 (area under the insulin concentration curve, 0 to 300 min)", "setting": "[1]", "value": "8562 (6576–11416) mU/(min·L)"}, {"measurement": "Cmax (maximum insulin concentration)", "setting": "[1]", "value": "60.4 (33.5–73.6) mU/L"}, {"measurement": "MRT (mean residence time)", "setting": "[1]", "value": "129.5 (117.1–137.5) min"}, {"measurement": "t50% (early) (time to reach 50% of Cmax before peak)", "setting": "[1]", "value": "23.3 (11.8–34.1) min"}, {"measurement": "t50% (late) (time to reach 50% of Cmax after peak)", "setting": "[1]", "value": "163.1 (157.3–181.8) min"}, {"measurement": "tmax (time to maximum insulin concentration)", "setting": "[1]", "value": "65.0 (50.0–90.0) min"}, {"measurement": "AUC0–300 (area under the insulin concentration curve, 0 to 300 min)", "setting": "[2]", "value": "8894 (7599–9870) mU/(min·L)"}, {"measurement": "Cmax (maximum insulin concentration)", "setting": "[2]", "value": "61.9 (45.0–82.5) mU/L"}, {"measurement": "MRT (mean residence time)", "setting": "[2]", "value": "118.0 (97.9–131.0) min"}, {"measurement": "t50% (early) (time to reach 50% of Cmax before peak)", "setting": "[2]", "value": "27.4 (19.8–32.7) min"}, {"measurement": "t50% (late) (time to reach 50% of Cmax after peak)", "setting": "[2]", "value": "156.5 (121.2–174.5) min"}, {"measurement": "tmax (time to maximum insulin concentration)", "setting": "[2]", "value": "67.5 (45.0–80.0) min"}, {"measurement": "AUC0–300 (area under the insulin concentration curve, 0 to 300 min)", "setting": "[3]", "value": "8281 (7176–10737) mU/(min·L)"}, {"measurement": "Cmax (maximum insulin concentration)", "setting": "[3]", "value": "69.0 (56.2–71.5) mU/L"}, {"measurement": "MRT (mean residence time)", "setting": "[3]", "value": "114.4 (105.9–116.9) min"}, {"measurement": "t50% (early) (time to reach 50% of Cmax before peak)", "setting": "[3]", "value": "18.0 (11.2–19.2) min"}, {"measurement": "t50% (late) (time to reach 50% of Cmax after peak)", "setting": "[3]", "value": "135.4 (120.4–150.0) min"}, {"measurement": "tmax (time to maximum insulin concentration)", "setting": "[3]", "value": "42.5 (35.0–45.0) min"}, {"measurement": "AUC0–300 (area under the insulin concentration curve, 0 to 300 min)", "setting": "[4]", "value": "7434 (6600–8282) mU/(min·L)"}, {"measurement": "Cmax (maximum insulin concentration)", "setting": "[4]", "value": "60.2 (56.2–69.7) mU/L"}, {"measurement": "MRT (mean residence time)", "setting": "[4]", "value": "112.4 (104.1–124.3) min"}, {"measurement": "t50% (early) (time to reach 50% of Cmax before peak)", "setting": "[4]", "value": "15.7 (12.2–25.6) min"}, {"measurement": "t50% (late) (time to reach 50% of Cmax after peak)", "setting": "[4]", "value": "119.3 (98.8–152.7) min"}, {"measurement": "tmax (time to maximum insulin concentration)", "setting": "[4]", "value": "32.5 (25.0–50.0) min"}, {"measurement": "AUC0–300 (area under the insulin concentration curve, 0 to 300 min)", "setting": "[5]", "value": "8175 (7194–8538) mU/(min·L)"}, {"measurement": "Cmax (maximum insulin concentration)", "setting": "[5]", "value": "93.6 (73.9–104.4) mU/L"}, {"measurement": "MRT (mean residence time)", "setting": "[5]", "value": "89.0 (76.9–91.7) min"}, {"measurement": "t50% (early) (time to reach 50% of Cmax before peak)", "setting": "[5]", "value": "12.4 (10.3–14.2) min"}, {"measurement": "t50% (late) (time to reach 50% of Cmax after peak)", "setting": "[5]", "value": "74.8 (66.7–76.2) min"}, {"measurement": "tmax (time to maximum insulin concentration)", "setting": "[5]", "value": "25.0 (25.0–30.0) min"}, {"measurement": "AUC0–300 (area under the insulin concentration curve, 0 to 300 min)", "setting": "[6]", "value": "7253 (5949–7625) mU/(min·L)"}, {"measurement": "Cmax (maximum insulin concentration)", "setting": "[6]", "value": "72.6 (54.1–91.0) mU/L"}, {"measurement": "MRT (mean residence time)", "setting": "[6]", "value": "88.7 (85.7–110.5) min"}, {"measurement": "t50% (early) (time to reach 50% of Cmax before peak)", "setting": "[6]", "value": "11.5 (8.2–13.1) min"}, {"measurement": "t50% (late) (time to reach 50% of Cmax after peak)", "setting": "[6]", "value": "69.3 (68.2–88.3) min"}, {"measurement": "tmax (time to maximum insulin concentration)", "setting": "[6]", "value": "25.0 (25.0–30.0) min"}, {"measurement": "AUC0–300 (area under the insulin concentration curve, 0 to 300 min)", "setting": "[7]", "value": "6684 (6402–8342) mU/(min·L)"}, {"measurement": "Cmax (maximum insulin concentration)", "setting": "[7]", "value": "92.3 (78.4–101.5) mU/L"}, {"measurement": "MRT (mean residence time)", "setting": "[7]", "value": "75.7 (66.7–87.0) min"}, {"measurement": "t50% (early) (time to reach 50% of Cmax before peak)", "setting": "[7]", "value": "11.6 (9.5–14.2) min"}, {"measurement": "t50% (late) (time to reach 50% of Cmax after peak)", "setting": "[7]", "value": "62.5 (60.7–68.8) min"}, {"measurement": "tmax (time to maximum insulin concentration)", "setting": "[7]", "value": "25.0 (25.0–25.0) min"}, {"measurement": "AUC0–300 (area under the insulin concentration curve, 0 to 300 min)", "setting": "[8]", "value": "6603 (5822–6773) mU/(min·L)"}, {"measurement": "Cmax (maximum insulin concentration)", "setting": "[8]", "value": "80.9 (79.0–84.0) mU/L"}, {"measurement": "MRT (mean residence time)", "setting": "[8]", "value": "75.4 (62.2–98.6) min"}, {"measurement": "t50% (early) (time to reach 50% of Cmax before peak)", "setting": "[8]", "value": "12.3 (11.5–16.4) min"}, {"measurement": "t50% (late) (time to reach 50% of Cmax after peak)", "setting": "[8]", "value": "63.5 (57.5–77.9) min"}, {"measurement": "tmax (time to maximum insulin concentration)", "setting": "[8]", "value": "25.0 (20.0–30.0) min"}, {"measurement": "decline of AUC0–300 from days 0 to 7", "setting": "pooled data from both IIS groups, 0.15 U/kg bolus", "value": "~24", "unit": "%"}]}
